Data from article PMC9998937.

Biological target: T1, ArcR (Staphylococcus aureus NCTC8325) (UniProt Q2FUY1)
T1 sequence: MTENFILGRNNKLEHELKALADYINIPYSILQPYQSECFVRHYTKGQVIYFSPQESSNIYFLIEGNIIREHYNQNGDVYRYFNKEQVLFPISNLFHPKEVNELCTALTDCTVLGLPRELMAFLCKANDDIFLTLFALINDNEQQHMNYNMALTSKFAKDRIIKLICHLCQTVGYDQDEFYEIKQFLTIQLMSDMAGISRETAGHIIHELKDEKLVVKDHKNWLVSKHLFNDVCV
Experiment: EMSA

Sequence | binding
ACACCAGTTAACTTTTTGTCTTGTTGTGACATAGTCATCCCTCCACAATTTATAATAATTATAATTTAATACATATTATAATTTAACCCCATCAAAATTACAATTAAACATGCTCAAGATGATTAAAAAATCAGAAAATTTTAATTTTTTCGCTTTACAGTACTAAATAGTTATTGAATAGTACACTTAAAAAGCTTACAATAATGGGTATATTTAAATAGATGGGAGACTAAATATGGAAGAT (double strand) [katA promoter region] | binds
AGCGCGTGTTGTTATGTCGCGAATGGTAATCTTTTCTAAATCTTTTTCTTGTAGTAATTTAGTGAACGCTTGTTTAATGGAGGACTTTGTCTTTCTAATTCGCCTATCTTCTTTCAAAAATAAATCAACCTCCTTGTGTTATTGAACAATGTGGGTGTATTTGTCTATTAATGAACGTATTGATGAACATTGTGTATTGTTTATTCCCACTTACATATTATAATAGACAACATGCGAAATATTCAACACATTGTCTAATAAGGAGGT (double strand) [tetA promoter region] | no binding
